To fix the notation:
B1: VH2+VL2 (antibody, human IgG4 S228P, kappa, V domains shown)
VH: QVQLVQSGAEVKKPGASVKVSCKASGYTFTSSVIHWVRQAPGQGLEWLGYINPYSDGTKFNEKCKIRATMTSDTSISTAYMELSRLRSDDTAVYYCARGLIGTRYDSWFAYWGQGTLVTVSS
VL: DIQMTQSPSSLSASVGDRVTITCRTSQDINNYLNWYQQKPGKAVKLLIYYTSRLHSGVPSRFSGSGSGTDFTFTISSLQPEDIATYFCQQGNTLPYTFGGGTKVEIKR
notes: Humanized IgG, hIgG4 CH (S228P) and human kappa CL; leader residues 1-19 of each entry left out; Tested from supernatant; also called U0959FD090-VH2 + U0959FD090-VL2
B2: VH1+VL2 (antibody, human IgG4 S228P, kappa, V domains shown)
VH: QVQLVQSGAEVKKPGASVKVSCKASGYTFTSSVIHWVRQAPGQGLEWMGYINPYSDGTKFNEKCKIRVTMTRDTSISTAYMELSRLRSDDTAVYYCARGLIGTRYDSWFAYWGQGTLVTVSS
VL: DIQMTQSPSSLSASVGDRVTITCRTSQDINNYLNWYQQKPGKAVKLLIYYTSRLHSGVPSRFSGSGSGTDFTFTISSLQPEDIATYFCQQGNTLPYTFGGGTKVEIKR
notes: Humanized IgG, hIgG4 CH (S228P) and human kappa CL; leader residues 1-19 of each entry left out; Tested from supernatant; also called U0959FD090-VH1 + U0959FD090-VL2
B3: VH4+VL2 (antibody, human IgG4 S228P, kappa, V domains shown)
VH: QVQLVQSGAEVKKPGASVKVSCKASGYTFTSSVIHWVKQAPGQGLEWLGYINPYSDGTKFNEKCKIRATMTSDKSISTAYMELSRLRSDDTAVYYCARGLIGTRYDSWFAYWGQGTLVTVSS
VL: DIQMTQSPSSLSASVGDRVTITCRTSQDINNYLNWYQQKPGKAVKLLIYYTSRLHSGVPSRFSGSGSGTDFTFTISSLQPEDIATYFCQQGNTLPYTFGGGTKVEIKR
notes: Humanized IgG, hIgG4 CH (S228P) and human kappa CL; leader residues 1-19 of each entry left out; Tested from supernatant; also called U0959FD090-VH4 + U0959FD090-VL2
B4: VH4+VL4 (antibody, human IgG4 S228P, kappa, V domains shown)
VH: QVQLVQSGAEVKKPGASVKVSCKASGYTFTSSVIHWVKQAPGQGLEWLGYINPYSDGTKFNEKCKIRATMTSDKSISTAYMELSRLRSDDTAVYYCARGLIGTRYDSWFAYWGQGTLVTVSS
VL: DIQMTQSPSSLSASVGDRVTISCRTSQDINNYLNWYQQKPGKTVKLLIYYTSRLHSGVPSRFSGSGSGTDYTFTISSLQPEDIATYFCQQGNTLPYTFGGGTKVEIKR
notes: Humanized IgG, hIgG4 CH (S228P) and human kappa CL; leader residues 1-19 of each entry left out; Tested from supernatant; also called U0959FD090-VH4 + U0959FD090-VL4
B5: VH3+VL2 (antibody, human IgG4 S228P, kappa, V domains shown)
VH: QVQLVQSGAEVKKPGASVKVSCKASGYTFTSSVIHWVKQAPGQGLEWLGYINPYSDGTKFNEKCKIRVTLTSDTSISTAYMELSRLRSDDTAVYYCARGLIGTRYDSWFAYWGQGTLVTVSS
VL: DIQMTQSPSSLSASVGDRVTITCRTSQDINNYLNWYQQKPGKAVKLLIYYTSRLHSGVPSRFSGSGSGTDFTFTISSLQPEDIATYFCQQGNTLPYTFGGGTKVEIKR
notes: Humanized IgG, hIgG4 CH (S228P) and human kappa CL; leader residues 1-19 of each entry left out; Tested from supernatant; also called U0959FD090-VH3 + U0959FD090-VL2
B6: VH2+VL4 (antibody, human IgG4 S228P, kappa, V domains shown)
VH: QVQLVQSGAEVKKPGASVKVSCKASGYTFTSSVIHWVRQAPGQGLEWLGYINPYSDGTKFNEKCKIRATMTSDTSISTAYMELSRLRSDDTAVYYCARGLIGTRYDSWFAYWGQGTLVTVSS
VL: DIQMTQSPSSLSASVGDRVTISCRTSQDINNYLNWYQQKPGKTVKLLIYYTSRLHSGVPSRFSGSGSGTDYTFTISSLQPEDIATYFCQQGNTLPYTFGGGTKVEIKR
notes: Humanized IgG, hIgG4 CH (S228P) and human kappa CL; leader residues 1-19 of each entry left out; Tested from supernatant; also called U0959FD090-VH2 + U0959FD090-VL4
B7: VH1+VL3 (antibody, human IgG4 S228P, kappa, V domains shown)
VH: QVQLVQSGAEVKKPGASVKVSCKASGYTFTSSVIHWVRQAPGQGLEWMGYINPYSDGTKFNEKCKIRVTMTRDTSISTAYMELSRLRSDDTAVYYCARGLIGTRYDSWFAYWGQGTLVTVSS
VL: DIQMTQSPSSLSASVGDRVTITCRTSQDINNYLNWYQQKPGKAVKLLIYYTSRLHSGVPSRFSGSGSGTDYTFTISSLQPEDIATYFCQQGNTLPYTFGGGTKVEIKR
notes: Humanized IgG, hIgG4 CH (S228P) and human kappa CL; leader residues 1-19 of each entry left out; Tested from supernatant; also called U0959FD090-VH1 + U0959FD090-VL3
B8: VH3+VL1 (antibody, human IgG4 S228P, kappa, V domains shown)
VH: QVQLVQSGAEVKKPGASVKVSCKASGYTFTSSVIHWVKQAPGQGLEWLGYINPYSDGTKFNEKCKIRVTLTSDTSISTAYMELSRLRSDDTAVYYCARGLIGTRYDSWFAYWGQGTLVTVSS
VL: DIQMTQSPSSLSASVGDRVTITCRTSQDINNYLNWYQQKPGKAPKLLIYYTSRLHSGVPSRFSGSGSGTDFTFTISSLQPEDIATYYCQQGNTLPYTFGGGTKVEIKR
notes: Humanized IgG, hIgG4 CH (S228P) and human kappa CL; leader residues 1-19 of each entry left out; Tested from supernatant; also called U0959FD090-VH3 + U0959FD090-VL1
B9: VH1+VL1 (antibody, human IgG4 S228P, kappa, V domains shown)
VH: QVQLVQSGAEVKKPGASVKVSCKASGYTFTSSVIHWVRQAPGQGLEWMGYINPYSDGTKFNEKCKIRVTMTRDTSISTAYMELSRLRSDDTAVYYCARGLIGTRYDSWFAYWGQGTLVTVSS
VL: DIQMTQSPSSLSASVGDRVTITCRTSQDINNYLNWYQQKPGKAPKLLIYYTSRLHSGVPSRFSGSGSGTDFTFTISSLQPEDIATYYCQQGNTLPYTFGGGTKVEIKR
notes: Humanized IgG, hIgG4 CH (S228P) and human kappa CL; Tested from supernatant; also called U0959FD090-VH1 + U0959FD090-VL1

In the assay the target is T1, human CD47 protein (human, UniProt Q08722 19-139, limits assumed).
T1 construct: also called human CD47 antigen
T1 sequence (Q08722 19-139 limits assumed): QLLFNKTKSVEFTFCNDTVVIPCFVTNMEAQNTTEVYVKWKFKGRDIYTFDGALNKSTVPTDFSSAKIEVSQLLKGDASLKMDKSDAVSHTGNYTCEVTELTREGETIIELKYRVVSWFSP
As to the kind of experiment: SPR Biacore, supernatant antibody Fc-captured, human CD47 analyte 5 nM. As for the experimental part: Production and affinity ranking of humanized antibodies. The designed plasmids of heavy chain and light chain were sent for 3 mL transfection following GenScript's SOP. For affinity ranking, Antibodies were captured on the sensor chip through Fc capture method. Human CD47 protein was used as the analyte. The surface was regenerated before the injection of another antibody. The process was repeated until all antibodies were analyzed. The off-rates of antibodies were obtained from fitting the experimental data locally to 1:1 interaction model using the Biacore® T200/8K evaluation software. The antibodies were ranked by their dissociation rate constants (off-rates, kd).
A general note: In SPR one partner is held on a chip, and binding of the other changes the refractive index at the surface.
In the case of B1, the affinity, expressed as Kd, was 698 pM; the koff (commonly the rate constant with which the complex falls apart) came to 0.00413 s⁻¹; the kon (usually a measure of how fast the partners come together) amounted to 5.92e+06 M⁻¹ s⁻¹.
For B2, the affinity, expressed as Kd, was 368 pM; the koff is 0.00159 s⁻¹; the on-rate constant (kon) was 4.32e+06 M⁻¹ s⁻¹.
For B3, binding was characterised by a dissociation constant (Kd) of 772 pM, the koff is 0.00335 s⁻¹ and the kon is 4.34e+06 M⁻¹ s⁻¹.
B4: the Kd (as a rule, the constant that tells how readily two partners part at equilibrium) came to 553 pM; the koff was determined as 0.00278 s⁻¹; the kon was 5.02e+06 M⁻¹ s⁻¹.
B5: the Kd amounted to 638 pM, the koff was 0.00378 s⁻¹ and the kon worked out at 5.93e+06 M⁻¹ s⁻¹.
Regarding B6, the affinity, expressed as Kd, was 585 pM; the koff stood at 0.00332 s⁻¹; the kon was found to be 5.67e+06 M⁻¹ s⁻¹.
B7 yielded a Kd of 274 pM, a koff of 0.00137 s⁻¹ and an on-rate (kon) of 5e+06 M⁻¹ s⁻¹.
B8: the Kd came to 803 pM, the koff stood at 0.00553 s⁻¹ and the kon stood at 6.89e+06 M⁻¹ s⁻¹.
Regarding B9, binding was characterised by a dissociation constant (Kd) of 412 pM, the koff was 0.0021 s⁻¹ and the kon is 5.1e+06 M⁻¹ s⁻¹.

For the origin of these results see patent US20220204613A1 (D 10 THERAPEUTICS, published 2022).
